Source: paper doi:10.1101/767376, “Strategies to improve scFvs as crystallization chaperones suggested by analysis of a complex with the human PHD-bromodomain SP140” (bioRxiv, 2019)

Molecular target: T1, SP140 PHD-bromodomain (construct SP140A-c055) (Homo sapiens, UniProt Q13342)
T1 construct: SP140, human, nuclear leukocyte-specific protein, amino acids 688-862 (PHD and bromodomain); Biotinylated recombinant SP140 was the target in the phage selection; Details are in supplementary methods S1; source: recombinant, purified
Assay: SPR; format and conditions in Supplementary Method S3 and Figure S1 (not shown)

T1 sequence (Q13342 688-862): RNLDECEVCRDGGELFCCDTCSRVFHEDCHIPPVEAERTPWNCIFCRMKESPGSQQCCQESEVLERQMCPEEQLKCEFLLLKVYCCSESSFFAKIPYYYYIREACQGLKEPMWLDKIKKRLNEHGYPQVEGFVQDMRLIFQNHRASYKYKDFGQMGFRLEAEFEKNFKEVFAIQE

B1: G-SP140-8 scFv (construct YYSP140A-c009) (scFv, V domains shown)
VH: EVQLLESGGGLVQPGGSLRLSCAASGFTFYGSGMGWVRQAPGKGLEWVSSIYSGSGSTYYADSVKGRFTISRDNSKNTLYLQMNSLRAEDTAVYYCARTSIYYYYMDYWGQGTLVTVSS
VL: DIQMTQSPSSLSASVGDRVTITCRASQSISSYLNWYQQKPGKAPKLLIYAASSLQSGVPSRFSGSGSGTDFTLTISSLQPEDFATYYCQQSSSLFTFGQGTKLEIK
notes: scFv (VH and VL joined by a linker) selected by phage display from the human synthetic library SciLifeLib; see Supplementary Method S3; not shown: MBP, N-terminal, cleaved; His6, N-terminal, cleaved
Kd: ~6 nM
